From patent US6429305 (ACADEMIA SINICA, dated 2002)

Target: growth hormone receptor on ZFL cells (zebrafish liver cell line) (zebrafish)
Test: cell-based or functional assay

Binder	increase in cell proliferation relative to no growth hormone added (MTS-formazan conversion assay, ZFL cells) [%]
recombinant ayu (Plecoglossus altivelis) growth hormone (ligand) MSENQRLFSIAVNRAQHLHLLAQKMFNDFEGNLSPDDRRQMNKIFLQDFCNSDSIISPVDKHETQKSSVQKLLHISFRLVESWEYPSQALSSSLSLSRFSEIPLKLTDLKLGIDTILRGTQDGLLSLEDNEAQQLPPYENYYQNLGGDDNIHRSYELLACFKKDMHKVETYLTVAKCRRSLEANCTLLEHHHHHH	118
recombinant yellow grouper (Epinephelus awoara) growth hormone (ligand) MITDGQRLFSIAVSRVQHLHLLAQRLFSDFESSLQTEEQRQLNKIFLQDFCNSDYIISPIDKHETQRSSVLKLLSISYRLVESWEFPSRSLSGGSAPRNQIFPKLSELKTGILLLIRANQDGAELFPDSSALQLAPYGNYYQSLGADESLRRTYELLACFKKDMHKVETYLTVAKCRLSPEANCTLLEHHHHHH	58.3
